# Assay results from patent publication US20030180295A1 (PHILADELPHIA HEALTH AND EDUCATION, published 2003).
# Biological target: T1, Thrombospondin (TSP-1) (UniProt P07996 19-1170, biotinylated in the ligand blot of Example 5)
# T1 construct: also called thrombospondin-1; biotinylated TSP-1
# Experiment: resonant mirror biosensor, peptide alone on immobilized TSP-1
# T1 sequence (P07996 19-1170 limits assumed): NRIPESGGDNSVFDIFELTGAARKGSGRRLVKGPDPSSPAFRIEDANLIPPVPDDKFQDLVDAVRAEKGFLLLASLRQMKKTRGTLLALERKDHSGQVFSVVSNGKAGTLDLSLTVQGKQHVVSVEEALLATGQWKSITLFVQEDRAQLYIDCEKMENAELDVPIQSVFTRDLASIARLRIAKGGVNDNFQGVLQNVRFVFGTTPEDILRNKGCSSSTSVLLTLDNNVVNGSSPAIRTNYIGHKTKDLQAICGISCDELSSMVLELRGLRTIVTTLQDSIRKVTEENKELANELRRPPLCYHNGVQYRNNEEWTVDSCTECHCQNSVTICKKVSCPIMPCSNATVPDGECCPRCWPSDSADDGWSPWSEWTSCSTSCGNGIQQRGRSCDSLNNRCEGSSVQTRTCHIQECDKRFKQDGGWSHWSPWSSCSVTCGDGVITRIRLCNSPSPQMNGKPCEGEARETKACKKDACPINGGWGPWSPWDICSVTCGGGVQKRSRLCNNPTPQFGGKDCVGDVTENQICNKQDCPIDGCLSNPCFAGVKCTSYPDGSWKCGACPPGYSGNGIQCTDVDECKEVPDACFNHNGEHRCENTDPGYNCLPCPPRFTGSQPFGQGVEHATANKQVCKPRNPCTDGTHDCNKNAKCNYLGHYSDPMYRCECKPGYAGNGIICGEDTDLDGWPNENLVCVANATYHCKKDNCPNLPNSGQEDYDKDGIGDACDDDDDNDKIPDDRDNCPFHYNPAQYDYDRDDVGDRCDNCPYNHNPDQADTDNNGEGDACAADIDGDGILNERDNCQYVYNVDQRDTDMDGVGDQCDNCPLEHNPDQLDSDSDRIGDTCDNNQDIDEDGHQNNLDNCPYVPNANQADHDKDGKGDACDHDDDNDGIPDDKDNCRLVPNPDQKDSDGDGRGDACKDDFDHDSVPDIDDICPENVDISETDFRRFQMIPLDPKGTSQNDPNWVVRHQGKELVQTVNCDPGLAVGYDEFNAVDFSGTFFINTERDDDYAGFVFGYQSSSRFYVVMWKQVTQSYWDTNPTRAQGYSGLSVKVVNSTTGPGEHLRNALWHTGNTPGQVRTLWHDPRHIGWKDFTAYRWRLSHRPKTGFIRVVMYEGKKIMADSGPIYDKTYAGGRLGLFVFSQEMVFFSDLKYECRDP
binder,measurement,value
PHSRN (also called random negative control peptide; control peptide) [Pro-His-Ser-Arg-Asn (SEQ ID NO: 10)],binding result,no binding
